In article PMC9629720, “Lipids mediate supramolecular outer membrane protein assembly in bacteria” (Science Advances, 2022):

Legend:
[1] = target: OmpF, wild type, purified (E. coli) (UniProt P02931); test: native MS; purified OmpF samples, 5 μM in 1% β-OG, 0.2 M ammonium acetate pH 6.9; the OmpF trimer itself
[2] = target: OmpF (endogenous, co-extracted with FepA^BPA) (E. coli (endogenous in BW25113)) (UniProt P02931); test: native MS; FepA^BPA preparations with co-extracted porins, 5 μM in 1% β-OG, 0.2 M ammonium acetate pH 6.9; make-up of the porin trimers
[3] = target: OmpF V177^BPA cross-linked to phospholipid (anion exchange peak 1) (E. coli) (UniProt P02931); test: native MS; purified OmpF samples, 5 μM in 1% β-OG, 0.2 M ammonium acetate pH 6.9; the OmpF trimer itself
[4] = target: OmpF V177^BPA cross-linked to LPS (anion exchange peak 2) (E. coli) (UniProt P02931); test: as above
[5] = target: the molecule itself; test: native MS; FepA^BPA preparations with co-extracted porins, 5 μM in 1% β-OG, 0.2 M ammonium acetate pH 6.9; make-up of the porin trimers
[6] = target: T1, OmpF (endogenous, co-extracted with FepA^BPA) (E. coli (endogenous in BW25113), UniProt P02931 23-362); test: as above; settings: partners not purified
T1 construct: OmpF, 16-stranded β barrel porin of E. coli; Found as homotrimers and as heterotrimers with OmpC; also called OmpF/C; porins; source: endogenous, outer membrane of E. coli BW25113 ΔfepA
T1 sequence (looked up): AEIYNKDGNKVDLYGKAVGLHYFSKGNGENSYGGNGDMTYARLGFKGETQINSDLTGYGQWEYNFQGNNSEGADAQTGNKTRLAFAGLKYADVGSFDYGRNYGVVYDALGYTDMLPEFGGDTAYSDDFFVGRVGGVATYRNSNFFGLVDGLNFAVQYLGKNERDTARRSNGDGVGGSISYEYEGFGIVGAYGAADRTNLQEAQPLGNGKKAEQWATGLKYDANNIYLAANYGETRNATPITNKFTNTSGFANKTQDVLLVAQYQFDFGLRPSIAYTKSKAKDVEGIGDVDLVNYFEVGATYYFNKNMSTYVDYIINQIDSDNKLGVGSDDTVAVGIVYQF

Work on “OmpF, wild type, purified (from UniProt P02931 23-362) (natural protein)” yielded a stoichiometry N [1] of 3.

“OmpF (endogenous, co-extracted with FepA^BPA) (from UniProt P02931 23-362) (natural protein)” gave a stoichiometry N [2] of 3.

With “OmpF V177^BPA cross-linked to phospholipid (anion exchange peak 1) (from UniProt P02931 23-362) (natural protein)” the stoichiometry N [3] was 3.

Work on “OmpF V177^BPA cross-linked to LPS (anion exchange peak 2) (from UniProt P02931 23-362) (natural protein)” yielded a stoichiometry N [4] of 3.

B1: OmpC (endogenous, co-extracted with FepA^BPA) (natural protein, E. coli (endogenous in BW25113), UniProt P06996 22-367, looked up)
chain: AEVYNKDGNKLDLYGKVDGLHYFSDNKDVDGDQTYMRLGFKGETQVTDQLTGYGQWEYQIQGNSAENENNSWTRVAFAGLKFQDVGSFDYGRNYGVVYDVTSWTDVLPEFGGDTYGSDNFMQQRGNGFATYRNTDFFGLVDGLNFAVQYQGKNGNPSGEGFTSGVTNNGRDALRQNGDGVGGSITYDYEGFGIGGAISSSKRTDAQNTAAYIGNGDRAETYTGGLKYDANNIYLAAQYTQTYNATRVGSLGWANKAQNFEAVAQYQFDFGLRPSLAYLQSKGKNLGRGYDDEDILKYVDVGATYYFNKNMSTYVDYKINLLDDNQFTRDAGINTDNIVALGLVYQF
notes: OmpC, porin, structural homolog of OmpF, E. coli; Found as homotrimers and as heterotrimers with OmpF; also called OmpF/C; porins; source: endogenous, outer membrane of E. coli BW25113 ΔfepA
In the case of B1, the “stoichiometry N” value [5] is reported as 3 and the “stoichiometry N” value [6] is reported as 3.
